Biological target: Recombinant protein G from Escherichia coli (group G Streptococci) (UniProt P06654)
Experiment: total internal reflected imaging ellipsometry (TIRIE); protein G immobilised on EDC/NHS-activated MUA gold surface (100 μg/mL in the whole-process run); antibody flowed over for 20 min, rinsed with PBST; real-time grayscale signal

Substance	TIRIE signal increase	TIRIE signal increment with protein G
Anti-CD63 antibody [MEM-259]	900 grayscale	650
Anti-CD9 antibody [MEM-61]	900 grayscale	640

From publication PMC8160712
